Source: article PMC5627591
Like-named read-outs stand apart in the source and are kept apart here.

Key:
Assay in all cases: BLI
[1] = target: human IgG1 Fc-YTE variant (M252Y/S254T/T256E) of the pH-dependent mAbs (human)
[2] = target: human IgG1 Fc-YPY variant (M252Y/V308P/N434Y) of the pH-dependent mAbs (human)
[3] = target: human IgG1 Fc-YEY variant (M252Y/N286E/N434Y) of the pH-dependent mAbs (human)
[4] = target: human IgG1 wild-type (WT) Fc variant of the pH-dependent mAbs (human)
[5] = target: human IgG1 Fc-YTE variant (M252Y/S254T/T256E) of the pH-dependent mAbs (human); remark: listed apart in the source
[6] = target: human IgG1 Fc-YPY variant (M252Y/V308P/N434Y) of the pH-dependent mAbs (human); remark: listed apart in the source
[7] = target: human IgG1 Fc-YEY variant (M252Y/N286E/N434Y) of the pH-dependent mAbs (human); remark: listed apart in the source
[8] = target: human IgG1 wild-type (WT) Fc variant of the pH-dependent mAbs (human); remark: listed apart in the source

| Kd [1] [µM] | Kd [2] [µM] | Kd [3] [µM] | Kd [4] [µM] | Kd [5] [µM] | Kd [6] [µM] | Kd [7] [µM] | Kd [8] [µM] | Substance |
| --- | --- | --- | --- | --- | --- | --- | --- | --- |
| 1.11 | 0.028 | 0.066 | 0.853 | 0.076 | 0.0022 | 0.0043 | – | cyno FcRn (cynomolgus monkey neonatal Fc receptor) (from UniProt Q8SPV9 24-365) |
| 0.76 | 0.014 | 0.022 | 0.185 | 0.03 | 0.0016 | 0.0031 | > 10 | human FcRn (human neonatal Fc receptor) (from UniProt P55899 24-365) |
